Key:
[1] = target: PD-L1-6His-tag (Programmed cell Death Ligand 1) of the Cisbio Human PD1/PD-L1 biochemical binding assay (human) (UniProt Q9NZQ7); assay: AlphaScreen or HTRF
[2] = target: human PD-L1 expressed on CHO-K1 cells (CHO-K1 hPD-L1) (human) (UniProt Q9NZQ7); assay: radioligand binding
Chain of human PD-L1 expressed on CHO-K1 cells (CHO-K1 hPD-L1) (human) (Q9NZQ7 19-290): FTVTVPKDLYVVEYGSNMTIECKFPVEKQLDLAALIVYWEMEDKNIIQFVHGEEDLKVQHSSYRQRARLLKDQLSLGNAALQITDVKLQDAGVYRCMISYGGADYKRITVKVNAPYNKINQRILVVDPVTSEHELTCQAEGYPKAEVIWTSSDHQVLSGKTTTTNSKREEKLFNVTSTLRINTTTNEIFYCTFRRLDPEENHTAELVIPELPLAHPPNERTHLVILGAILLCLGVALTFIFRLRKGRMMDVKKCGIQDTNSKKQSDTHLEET

Chain of PD-L1-6His-tag (Programmed cell Death Ligand 1) of the Cisbio Human PD1/PD-L1 biochemical binding assay (human) (Q9NZQ7 19-238): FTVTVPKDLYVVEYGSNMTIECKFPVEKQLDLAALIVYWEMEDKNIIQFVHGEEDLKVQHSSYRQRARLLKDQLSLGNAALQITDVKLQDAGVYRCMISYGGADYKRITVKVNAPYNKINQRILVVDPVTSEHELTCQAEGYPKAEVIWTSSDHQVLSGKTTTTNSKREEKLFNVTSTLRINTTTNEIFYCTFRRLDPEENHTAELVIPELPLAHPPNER

cell internalization %AD/10^6 cells (90 min) (%AD/10^6 cells) [2]	membrane bound %AD/10^6 cells (90 min) (%AD/10^6 cells) [2]	Substance	IC50 [1]
		BMS78, 14-mer macrocyclic peptide	0.133 µM
		NJMP1 (BMS78 C-terminally conjugated to Lys(DOTA)NH2) (peptide)	0.242 µM
1.68	0.36	[68Ga]Ga-NJMP1 (peptide)	
19.2	18.2	[68Ga]Ga-WL12 (WL12 with DOTAGA on Orn13, loaded with 68Ga) (peptide)	
		natGa-NJMP1 (peptide)	25.9 µM
		natGa-WL12 (WL12 with DOTAGA on Orn13, loaded with natGa) (peptide)	0.0124 µM

From paper PMC9320808
